Measured values published in US20100143379A1 (priority 2005, published 2010).

Assays:
p56^lck = test: Tyrosine kinase phosphorylation in COS-7/M6 transformants and MEFs (immunoblot); assay type: cell-based; settings: only in the cells expressing both CD74 and full-length CD44
Description: Cells then were harvested and lysed in buffer containing 50 mM Hepes, pH7.5, 150 mM NaCl, 1.5 mM MgCl2, 1 mM EGTA, 1% Glycerol and 1% Triton X-100, and freshly added phosphatase and proteinase inhibitors (1 mM orthovanandate, 10 mM NaF, 10 μg/ml leupeptin, 25 μg/ml aprotinin and 50 μg/ml PMSF). For immunoblotting, 15-20 μg of cell lysate proteins were separated by 10% SDS-PAGE and transferred to PVDF Immobilon-P transfer membranes (Millipore). The blots were developed with specific primary antibodies that included a pair of anti-phospho-ERK-1/2 (sc-7383, Santa Cruz) and anti-(total) ERK-1/2 (sc-94, Santa Cruz) antibodies, a pair of anti-phospho-p56^lck (Cell Signaling) and anti-(total) p56^lck (sc-433, Santa Cruz) antibodies, or a pair of anti-phospho-Src and anti-(total) Src antibodies (Cell Signaling). The secondary antibodies included anti-mouse IgG or anti-rabbit IgG conjugated with horseradish peroxidase (Cell Signaling). The ECL detection reagents (Amersham) were used to visualize bands.
Cell lysates were collected and analyzed by immunoblots using a pair of anti-phospho-PICA and anti-(total)-PKA antibodies, a pair of anti-phospho-PKC (all from Cell Signaling) and anti-(total)-PKC (Santa Cruz) antibodies, or a pair of anti-phospho-p56^lck (Cell Signaling) and anti-(total) p56^lck (sc-433, Santa Cruz) antibodies.

ERK-1/2 = ERK-1/2 phosphorylation in COS-7/M6 stable transformants (Western blot); assay type: cell-based; settings: 100 ng/ml
[1] = test system: murine bone marrow progenitor cultures; test: BFU-E and CFU-E erythropoietin-dependent progenitor colony assays; assay type: cell-based; settings: 10-100 ng/ml MIF, 1-20 ng/ml TNFα, or 10-100 U/ml IFNγ
Description: Bone marrow cells were harvested, plated in a methylcellulose-based medium, and colony numbers scored after the addition of murine cytokines. Individual assays were performed in duplicate, and the data shown is a compilation of 3-6 independently performed experiments. % inhibition of colony formation is calculated with reference to a cytokine-minus control. All values shown are the mean±SD and are significant when compared to wells with no cytokine addition (P<0.05). CFU-E: colony forming unit—erythroid; BFU-E: burst-forming unit—erythroid.
The two inflammatory cytokines, TNFα and IFNγ, were also studied. TNFα and IFNγ are produced as a consequence of macrophage and T cell activation (McDevitt et al. 2004. Curr Hematol Rep 3:97-106). The appearance of BFU-E and CFU-E were quantified after culture with these cytokines, applied either alone or in combination.
BFU-E and CFU-E Progenitor Cell Assays. The progenitor cell (colony) assays were performed according to the standardized methods described previously (Martiney et al. 2000. Infection and Immunity 68:2259-2267) and protocols from StemCell Technologies (Vancouver; BC, Canada). Briefly, washed murine bone marrow cells were plated in sterile 35-mm dishes containing a methylcellulose-based medium and growth factors. The total number of bone marrow cells plated in duplicate culture dishes were as follows: 2×10^5 for CFU-E and 5×10^5 for BFU-E. MethoCult™ M3334 was utilized for the CFU-E and BFU-E colony assays. The media for CFU-E and BFU-E was volume adjusted by adding 1 part Isocove's MDM to 9 parts MethoCult™ M3334 to give final concentrations of the following components: 15% fetal bovine serum, 1% BSA, […] transferrin, […] insulin, 1% methylcellulose, 10^−4 M 2-mercaptoethanol, 2 mM L-glutamine and 3 units/ml erythropoietin. Each assay of different bone marrow progenitor cells was performed independently 3-6 times.

p53 = test: Ser15-phosphorylated p53 content, macrophages; assay type: cell-based, mouse; settings: during apoptosis induction
Description: (§1) Apoptosis Studies. […] Cell lysates were collected, and caspase-3 activity analyzed using a colorimetric assay kit (R&D Systems). Cytoplasmic p53 content was analyzed as described previously (Mitchell et al. (2002). Proc Natl Acad Sci USA 99:345-350) by immunoblotting of mouse cytosolic fractions using a pair of anti-phospho-p53 (Ser15) (R&D Systems) and total anti-p53 antibodies (Cell Signaling); and for COS-7 cells, the anti-p53 (Ser15) and total anti-p53 antibodies (Cell Signaling). In vivo apoptosis studies followed the procedures of (Mitchell et al. (2002). Proc Natl Acad Sci USA 99:345-350), and were conducted after i.p injection of 15 mg/kg lipopolysaccharide (E. coli 0111:B4; Sigma). Mice were sacrificed 24 hrs after priming and the peritoneal macrophage cells collected and immediately analyzed for apoptosis by an ELISA that detects cytoplasmic oligonucleosomes (Roche Diagnostics). Primary macrophages also were immunostained by Alexa 488-conjugated, Annexin V (Invitrogen), and apoptotic cells enumerated by fluorescence microscopy.

[2] = test system: human K562 progenitor cell line; test: K562 terminal erythropoietic differentiation (DAF stain) and hemoglobin content; assay type: cell-based
Description: The neutralizing anti-MIF mAb was added at 100 μg/ml. DAF positive cells were enumerated and expressed as fold-change over total, input cells. FIG. 2B: cellular hemoglobin content of cultured K562 progenitor cells. […] Each value represents the mean±SD of at least three different experiments. *P<0.01 versus corresponding controls.
(§2) The human K562 progenitor cell line (ATCC, CCL-243) was cultured in RPMI/10% FBS supplemented with penicillin and streptomycin. For differentiation, sodium butyrate (AldRick, Milwaukee, Wis.) was added in the medium (Witt et al. 2000. Blood 95:2391-2396). Terminal erythropoietic differentiation was measured as described by McGukin et al. (McGuckin et al. 2003. European Journal of Haematology 70:106-114) and positive cells enumerated after staining with 2,7-diaminofluorene (Sigma, St. Louis, Mo.). To quantify hemoglobin synthesis, the cells were centrifuged and washed in PBS, and the cell pellet resuspended in lysis buffer (100 mM potassium phosphate pH 7.8, 0.2% Triton X-100) before disruption by aspiration through a 21-gauge needle. After microcentrifugation, the supernatant was collected and the hemoglobin concentration was determined using the hemoglobin kit from Sigma. Cell viability was assessed by trypan blue dye exclusion and found to be equivalent (85-90% viability) between all samples studied.

erythroid progenitors = test: Cytotoxicity by Trypan blue exclusion; assay type: cell-based
Description: as §2

primary macrophages = test: In vitro apoptosis, primary macrophages; assay type: cell-based, mouse; settings: MIF 100 ng/ml; dependent on CD74 and CD44
Description: Mice and Primary Cells. Wild-type (BALB/c or C57/B16), CD74-KO, (Shachar et al. (1996). Science 274:106-108), CD44-KO (Teder et al, (2002). Science 296:155-158), and MIF-KO (Bozza et al. (1999). J Exp Med 189:341-346), mice were bred at the Yale Animal Resource Center under strict, pathogen-free conditions. The KO strains were in genetically pure BALB/c or C57/B16 backgrounds (each at generation ≧N10). Mouse embryonic fibroblasts (MEFs) were obtained from 2 week-old embryos as described (Fingerle-Rowson et al. (2003). Proc Natl Acad Sci USA 100:9354-9359). […]
as §1, with “In vivo apoptosis studies followed the procedures of (Mitchell et al. (2002). Proc Natl Acad Sci USA 99:345-350), and were conducted after i.p injection of 15 mg/kg lipopolysaccharide (E. coli 0111:B4; Sigma).” left out

[3] = test system: Friend murine erythroleukemia (MEL) cell line; test: MEL cell cytodifferentiation and hemoglobin content; assay type: cell-based
Description: The specificity of this effect was verified by the application of a neutralizing, anti-MIF mAb.
Erythroid Progenitor Cell Lines. The Friend murine erythroleukemia (MEL) cell line was cultured in Dulbecco's modified Eagle's medium supplemented with 10% FBS. Differentiation was induced with dimethyl sulfoxide differentiation medium for 4 days as described (Terada et al. 1977. Proc. Natl. Acad. Sci. USA 74:248-252). Hemoglobin synthesis was assessed by cyto-centrifugation onto glass slides followed by staining with benzidine (Worthington), and by the hemoglobin kit from Sigma.

B1: MIF: macrophage migration inhibitory factor; recombinant mouse or human MIF purified essentially free of endotoxin (protein)
chain: PMFIVNTNVPRASVPDGFLSELTQQLAQATGKPPQYIAVHVVPDQLMAFGGSSEPCALCSLHSIGKIGGAQNRSYSKLLCGLLAERLRISPDRVYINYYDMNAANVGWNNSTFA
- p56^lck phosphorylation (p56^lck): phosphorylated by MIF treatment
- time of decay of ERK-1/2 phosphorylation (ERK-1/2): 30 min
- ERK-1/2 phosphorylation (ERK-1/2; cells transfected with CD74, CD44, CD74+CD44 or CD74+CD44^Δ67): induced ERK-1/2 phosphorylation only in those cells expressing both CD74 and full-length CD44
- BFU-E and CFU-E colony formation [1]: dose-dependently inhibited
- cellular content of Ser15-phosphorylated p53 (p53): diminution in the cellular content
- terminal erythropoietic differentiation (DAF stain) ([2]; MIF 200 ng/ml for 96 hrs): inhibited the terminal erythropoietic differentiation
- hemoglobin production ([2]; cellular hemoglobin content of cultured K562 progenitor cells): inhibition of cytodifferentiation and hemoglobin production
- cytotoxic effects (erythroid progenitors): Neither MIF nor anti-MIF were found to exert cytotoxic effects
- protection from apoptosis (primary macrophages): almost complete
- reduction of hemoglobin content ([3]; 20 ng/ml): 12%
- reduction of hemoglobin content ([3]; 100 ng/ml): 20%
- cytodifferentiation response (benzidine staining) ([3]; 200 ng/ml): decreased the cytodifferentiation response
